The series concerns the molecule itself. As to the kind of experiment: SEC; preparative Sephacryl S-200 gel filtration (120 mL), IMAC-purified protein at about 1 mg/mL, 1 mL injected after a 0.22 µm filter, 50 mM Tris pH 7.4, 150 mM NaCl, 5 mM CaCl2, 10 µM CT1746; sizes from a calibration curve; fractions checked by SDS-PAGE. Background: In gel filtration, larger molecules generally elute earlier.

“And” between values parts separate entries of the source, which are not always exact repeats. Equal entries are not always repeated.

B1: WT-Cat-L (catalytic domain with the linker of MT1-MMP), secreted without the prodomain (domain or fragment)
chain: not shown
notes: human MT1-MMP (MMP-14) catalytic domain with the linker; Found as monomer, dimer and higher multimers on gel filtration; also called Cat-L construct; source: Drosophila S2 insect cells, purified (IMAC, Sephacryl S-200)
What is called stoichiometry N is a count of units in the complex or per binding partner. For the protein B1, the “stoichiometry N” value was 2 and > 3.

Source of the values: publication PMC9406036, “The Catalytic Domain Mediates Homomultimerization of MT1-MMP and the Prodomain Interferes with MT1-MMP Oligomeric Complex Assembly” (Biomolecules, 2022).
